Biological target: human polyclonal IgG

| Protein | cleavage of IgG, SDS-PAGE with Coomassie stain and anti-human Fc blot | cleavage ELISA |
| --- | --- | --- |
| membrane-bound IdeS (IdeS-tm) (protein) chain 1: DSFSANQEIRYSEVTPYHVTSVWTKGVTPPAKFTQGEDVFHAPYVANQGWYDITKTFNGKDDLLCGAATAGNMLHWWFDQNKEKIEAYLKKHPDKQKIMFGDQELLDVRKVINTKGDQTNSELFNYFRDKAFPGLSARRIGVMPDLVLDMFINGYYLNVYKTQTTDVNRTYQEKDRRGGIFDAVFTRGDQSKLLTSRHDFKEKNLKEISDLIKKELTEGKALGLSHTYANVRINHVINLWGADFDSNGNLKAIYVTDSDSNASIGMKKYFVGVNSAGKVAISAKEIKEDNIGAQVLGLFTLSTGQDSWNQTN chain 2: not shown | Cleaved Ig appeared within 5 min and increased over time | – |
| secreted IdeS (IdeS-sec) (protein) DSFSANQEIRYSEVTPYHVTSVWTKGVTPPAKFTQGEDVFHAPYVANQGWYDITKTFNGKDDLLCGAATAGNMLHWWFDQNKEKIEAYLKKHPDKQKIMFGDQELLDVRKVINTKGDQTNSELFNYFRDKAFPGLSARRIGVMPDLVLDMFINGYYLNVYKTQTTDVNRTYQEKDRRGGIFDAVFTRGDQSKLLTSRHDFKEKNLKEISDLIKKELTEGKALGLSHTYANVRINHVINLWGADFDSNGNLKAIYVTDSDSNASIGMKKYFVGVNSAGKVAISAKEIKEDNIGAQVLGLFTLSTGQDSWNQTN | – | IdeS-sec efficiently cleaved human polyclonal IgG at different time points |

Source: patent US20220218748
